Assay results reported in paper doi:10.1101/2024.03.27.586873.

Target: 6xHis-tagged Imp1 (ΦKZ gp69) (phage ΦKZ)
Experiment: SEC + other: mass photometry

Substance “FLAG-tagged Imp6 (ΦKZ gp67) (natural protein)” has a stoichiometry N (gp67 per Imp1) of 2.
